According to US20080044425A1, “POLYPEPTIDES HAVING PHOSPHOLIPASE A2 ACTIVITY” (KYOWA HAKKO KOGYO CO., LTD., priority 2000, published 2008):

Test: Measurement of PLA2 activity in the soluble fraction of insect cells (Sf9) expressing the human-derived polypeptide
Type: biochemical
Conditions: 4 mmol/l calcium chloride, 37° C., 2 hours, control: pVL1393 vector virus, FIG. 10
Method: The supernatant containing the virus recovered in (2) above (2 ml) was added to 28 ml of 1.5×10^6/ml suspending Sf9 cells, and the cells were cultured at 27° C. for 4 days in the suspending state. The cells were recovered by centrifugation at 800 rpm for 5 minutes and washed with phosphate-buffered saline (PBS). The resulting cells were suspended in a buffer consisting of 25 mmol/l Tris-HCl (pH 7.5), 140 mmol/l sodium chloride, 5 mmol/l potassium chloride, 2 mmol/l EDTA and 1× complete, EDTA-free (Boehringer Mannheim) and disrupted on ice using a sonicator. The extract was centrifuged at 15,000 rpm for 15 minutes, and the supernatant was used for the measurement of PLA2 activity.
One hundred μl of a reaction solution [100 mmol/l Tris-HCl (pH 7.5), 4 mmol/l calcium chloride, 1 mg/ml bovine serum albumin (substantially fatty acid-free, Sigma) and 8 μmol/l Triton X-100] containing 1-palmitoyl-2-[1-^14C]arachidonyl-phosphatidylcholine (48 mCi/mmol, Daiichi Kagaku Yakuhin) (2 μmol/l) and the supernatant obtained above was incubated at 37° C. for 2 hours, followed by the addition of Dole reagent (containing 2-propanol, heptane and sulfuric acid at a ratio of 78:20:2) to stop the reaction. To the reaction mixture were further added 0.3 ml of heptane and 0.2 ml of water, and mixing was effected by rotation. […] The amount of the polypeptide was determined using the Bio Rad Protein Assay method. […]

B1: human-derived polypeptide of the present invention: novel human cytoplasmic phospholipase A2 polypeptide having the amino acid sequence shown in SEQ ID NO: 1, Flag-tagged, expressed in insect cells (protein, listed as Homo sapiens)
chain: MLWALWPRWLADKMLPLLGAVLLQKREKRGPLWRHWRRETYPYYDLQVKVLRATNIRGTDLLSKADCYVQLWLPTASPSPAQTRIVANCSDPEWNETFHYQIHGAVKNVLELTLYDKDILGSDQLSLLLFDLRSLKCGQPHKHTFPLNHQDSQELQVEFVLEKSQVPASEVITNGVLVAHPCLRIQGTLRGDGTAPREEYGSGQLQLAVPGAYEKPQLLPLQPPTEPGLPPTFTFHVNPVLSSRLHVELMELLAAVQSGPSTELEAQTSKLGEGGILLSSLPLGQEEQCSVALGEGQEVALSMKVEMSSGDLDLRLGFDLSDGEQEFLDRRKQVVSKALQQVLGLSEALDSGQVPVVAVLGSGGGTRAMSSLYGSLAGLQELGLLDTVTYLSGVSGSTWCISTLYRDPAWSQVALQGPIERAQVHVCSSKMGALSTERLQYYTQELGVRERSGHSVSLIDLWGLLVEYLLYQEENPAKLSDQQEAVRQGQNPYPIYTSVNVRTNLSGEDFAEWCEFTPYEVGFPKYGAYVPTELFGSELFMGRLLQLQPEPRICYLQGMWGSAFATSLDEIFLKTAGSGLSFLEWYRGSVNITDDCQKPQLHNPSRLRTRLLTPQGPFSQAVLDIFTSRFTSAQSFNFTRGLCLHKDYVAGREFVAWKDTHPDAFPNQLTPMRDCLYLVDGGFAINSPFPLALLPQRAVDLILSFDYSLEAPFEVLKMTEKYCLDRGIPFPSIEVGPEDVEEARECYLFAKAEDPRSPIVLHFPLVNRTFRTHLAPGVERQTAEEKAFGDFVINRPDTPYGMMNFTYEPQDFYRLVALSRYNVLNNVETLKCALQLALDRHQARERAGA
modifications: Flag tag
  PLA2 activity that hydrolyzes the ester bond at the sn-2-position in 1-palmitoyl-2-arachidonyl-phosphatidylcholine: has PLA2 activity
